Literature values in PMC11901361.

Molecular target: folate receptor alpha (Homo sapiens) (UniProt P15328)
Sequence (P15328 25-234): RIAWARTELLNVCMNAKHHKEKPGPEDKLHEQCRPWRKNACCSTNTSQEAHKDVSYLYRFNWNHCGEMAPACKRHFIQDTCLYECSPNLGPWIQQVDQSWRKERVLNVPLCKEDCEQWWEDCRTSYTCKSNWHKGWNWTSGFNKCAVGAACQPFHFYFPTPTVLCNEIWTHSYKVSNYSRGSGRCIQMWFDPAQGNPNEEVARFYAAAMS

## farletuzumab
  Kd: 2000 nM
